Laboratory results reported in IntAct's records for PubMed 21957239.

B1: Sodium-dependent dopamine transporter (Homo sapiens), Q01959 (parent)
chain: MSKSKCSVGLMSSVVAPAKEPNAVGPKEVELILVKEQNGVQLTSSTLTNPRQSPVEAQDRETWGKKIDFLLSVIGFAVDLANVWRFPYLCYKNGGGAFLVPYLLFMVIAGMPLFYMELALGQFNREGAAGVWKICPILKGVGFTVILISLYVGFFYNVIIAWALHYLFSSFTTELPWIHCNNSWNSPNCSDAHPGDSSGDSSGLNDTFGTTPAAEYFERGVLHLHQSHGIDDLGPPRWQLTACLVLVIVLLYFSLWKGVKTSGKVVWITATMPYVVLTALLLRGVTLPGAIDGIRAYLSVDFYRLCEASVWIDAATQVCFSLGVGFGVLIAFSSYNKFTNNCYRDAIVTTSINSLTSFSSGFVVFSFLGYMAQKHSVPIGDVAKDGPGLIFIIYPEAIATLPLSSAWAVVFFIMLLTLGIDSAMGGMESVITGLIDEFQLLHRHRELFTLFIVLATFLLSLFCVTNGGIYVFTLLDHFAAGTSILFGVLIEAIGVAWFYGVGQFSDDIQQMTGQRPSLYWRLCWKLVSPCFLLFVVVVSIVTFRPPHYGAYIFPDWANALGWVIATSSMAMVPIYAAYKFCSLPGSFREKLAYAIAPEKDRELVDRGEVRQFTLRHWLKV
partner: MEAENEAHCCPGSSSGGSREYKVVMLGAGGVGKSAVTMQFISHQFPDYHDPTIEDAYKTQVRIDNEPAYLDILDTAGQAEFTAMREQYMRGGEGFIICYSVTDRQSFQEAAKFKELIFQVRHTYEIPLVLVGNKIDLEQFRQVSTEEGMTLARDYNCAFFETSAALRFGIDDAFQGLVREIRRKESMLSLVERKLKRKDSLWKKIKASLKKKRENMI

Variants of: B1
Conditions: with rit2_rat Rit2, Q5BJQ5

Variant	effect of a mutation on the interaction
F587A;R588A;E589A;K590A	increasing interaction strength
